Experimental data taken from the nanobody polyreactivity screen of Harvey et al. (2022).

Assay: yeast display, Sf9 membrane polyspecificity reagent, FACS + sequencing; frameworks hold sequencing errors
Summary of the method: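 Using colony PCR, genes from sorted yeast display clones were amplified, then sequenced on MiSeq at 2 × 250 and filtered by CDR length. The clones had been stained with 10% biotinylated, detergent-solubilized Sf9 membrane reagent for 1 hour at 4 °C and sorted by FACS into low and high (top ~1%) gates on anti-HA and streptavidin fluorescence. Polyreactivity labels come from the gate of origin.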

| Sequence | polyreactivity (PSR sort gate) |
| --- | --- |
| QVQLVESGGGLVQAGGSLRLSCAASGFIFARYAMGWYRQAPGKERELVATISYTGGRRYYADSVKGRFTISRDHANNTVYLQINSLKPEDTAVYYVNAVYSYDRQRHEYWGQGTQVTVSS | high polyreactivity |
| QVQLVESGGGLVQAGGSLSLSCAASGRTLYQYAMGWSRQAPGKERELVAAITTSGGSTYYADSVKGRFTISRDNAKNTVYLQMNSLKPEDTAVYYCAAPYTGYRERGYYKSDYWGQGTQVTESS | low polyreactivity |
| QVQLVESGGGLVQAGGSLRLSCAASGRTFVSNVMGWYRQAPGKERELVAAINWSGDSTYYADSVKGRFTISRDNAKNTVYLQMNSLKPEDTAVYYCARRNPLGGNEHDYWGQGTQVTVSS | low polyreactivity |
| QVQLVESGGGLVQAGGSLRLSCAASGRIFRLYAMGWYRQAPGKERELVATITSGGTYYADSVKGRFTISRDNAKNTVYLQMNSLKPEDTAVYYCAADVYPGYVGSEEYDYWGQGTQETVSS | low polyreactivity |
| QVQLVESGGGLVQAGGSLRLSCAASGSIFKKYAMGWYRQSPGKERELVAAISSTGGSTKYADSVKGRFTISRDNAKNTVYLQMNSLKPEDTAVYYCAVRYKWPYDYWGQGTQVTVSS | high polyreactivity |
| QVQLVESGGGLVQAGGSLRLSCAASGSTVDWNAMGWYRQAPGKERELVAGITFRSGSTYYADSVKGRFTISRDNAKNTVYLQMNSLKPEDTAVYYCNVKLYYYYFRMYYWGQGTQVTVSS | low polyreactivity |
| QVQLVESGGGLVQAGGSLRLSCAASGYTFRVYTMGWYRQAPGKERELVAAISRRGSRTYYADSVKGRFTISRDNAKNTVYLQMNSLKPEDTAVYYCAAGIPYPDDYWGQGTQVTVSS | high polyreactivity |
| QVQLVESGGGLVQAGGSLRLSCAASGRTFQLNAMGWYRQAPGKERELFAAISTRGGSTYYADSVKGRFTISRDNAKNTVYLQMNSLKPEDTAVYYCATDPSFSRGYKEGGGYDYWGQGTQVTVSS | high polyreactivity |
| QVQLVESGGGLVQAGGSLRLSCAASGITFRGYAMGWYRQAPGKERELVAAITGSGTSTYADSVKGRFTISRGNAKNTVYLQMNSLKPEDTAVYYCAADTYDPFYYGYGYWGQGTQVTVSS | low polyreactivity |
| QVQLVESGGGLVQAGGILRLSCAASGSTFPGYAMGWYRQAPGKERELVAAISGNGVITYYADSVKGRFTISRDNAKNTVYLQMNSLKPEDTAVYYCNADRLYWGGYYGLTYWGQGTQVTVSS | low polyreactivity |
| QVQLVESGGGLVQAGGSLRLSCAASGRTFPYNAMGWYRQAPGKERELVAAITSSGSSTYYADSVKGRFTISRDNAKNTVYLQMNSLKPEDTAVYYCAADSYLIVGSSLVWQGYYYWGQGTQVTVSS | low polyreactivity |
| QVQLVESGGGLVQAGGSLRLSWAASGITFVRYAMGWYRQAPGKEREFVAAINSIVGRTYYADSVKGRFTISRDNAKNTVYLQMNSLKPEDTAVYYCDADSNVRYGMDYWGQGTQVTVSS | low polyreactivity |
| QVQLVESGGGLVQAGGSLRLSCAASGSTFRSYAMGWYRQSPGNERELVAAISYSGDSTYYADSVKGRFTISSDNAKNTVYLQMNSLKPEDTAVYYCAALRDWDIQCEPWKRYGYWGQGTQVTVSS | low polyreactivity |
| QVQLVESGGGLVQAGGSLRLICAASGFIFASNAMGWYRQAPGTERELVASITRGGTTKYADSVKGRFTISRDNAKNTVYLQMNSLKPEDTAVYYCAKRYVRFPWRMDYWGQGTQVTVSS | high polyreactivity |
| QVQLVESGGGLVQAGGSLRLSCAASGRIFGYYAMGWYRQAPGKERELVAGINSAGSTNYADSVKGRFTISRDNAKNTVYLQMNSLKPEDTAVYYCAARIRLSLRTGYDYWGQGTQVTVSS | high polyreactivity |
| QVQLVESGGGLVQAGGSLRLSCAASGSTFTTNAMGWSRQAPGNERELVATISGGGSTYYADSVKGRFTISRDNAKNTVYLQMNSLKPEDTAVYDCATDVQVPGIGRSVYAYEYWGQGTQVTVSS | low polyreactivity |

| Sequence | polyreactivity (PSR sort gate) |
| --- | --- |
| QVQLVESGGGLVQAGGSLRLSCAASGSSFWYNAMGWYRQAPGKERELVATISSRGDGTYYADSVKGRFTISRDNAKNTVYLQMNSLKPEDTAVYYCNKYRQQGWEFDYWGQGTQVTVSS | high polyreactivity |
| QVQLVESGGGLVQAGGSLRLSCAASGFTLDYYAMGWYRKAPGKERELVAAISFSGGSTYYADSVKGRFTISRDNAKNTVYLQMNSLKPEDTAVYFCAADPQIVWYDYWGQGTQVTVSS | low polyreactivity |
| QVQLVESGGGLVQAGGSLRLSCAASGRIFPINVMGWYRQAPGKERELVAAISGRGGSTYYADSVKGRFTISRDNAKNTVYLQMNSLKPEDTAVYYCAARSPYRYYYWGQGTQVTVSS | high polyreactivity |
| QVQLVESGGGLVQAGGSLRLSCAASGLIFRGYAMGWYRQAPGKERELVAAISKSGGSTYYADSVKGRFTISRDNAKNTVYLQMNSLKPEDTAVYYCNARKHGSRTGGYYWGQGTQVTVSS | high polyreactivity |
| QVQLVESGGGLVQAGGSLRLSCAASGSIFWVNAMGWYRQAPGQVSELVAAINYSDGSTSYADSVKGRFTISRDNAKNTVYLQMNSLKPEDTAVYYCNAESFELMYYWGQGTQVTVSS | low polyreactivity |
| QVQLVESGGGLVQAGGSHRLSCAASGRIFRSYAMGWYRQAPGKERELVAAISDRGGSTYYADSVKGRFTISRDNAKKTVYVQMNRLKAEDTAVYSCNAPRGGRNTVYYWGQGTQVTVSS | high polyreactivity |
| QVQLEESGGGLVQAGGSLRLSCAASGRIFDDNAMGWYRPAPGKERELVAAISSSGGSTYYADSVKGRFTISRDNAKNTVYLQMNSLKPEDTAVYYCNAGRYIRAFWYAHGYDYWGQGTQVTVSS | high polyreactivity |
| QVQLVESGGGLVQAGGSLRLSCAASGSTFGYAMGWYRQAPGKEREMVAAITSTGGSTYYADSVKGRFTISRDNAKNTVYVQMHSLKPEDTAVYYCAAQVGRGYEVYPVYKYGYWGQGTQVTVSS | high polyreactivity |
| QVQLVESGGGLVQAGGSLRLSCAASGFIFQRYAMGWYRQAPGKERELVAAITRTGGRTYYADSVKGRFTISRDNAKNTVYLQMNSLKPEDTAVYYCAADRTLSYEYWGQGTQVTVSS | high polyreactivity |
| QVQLVESGGGLVQAGGSLRLSCAASGSTFVYNAMGWYRQAPGKERELVASITRSGSSTYYADSVKGRFTISRDNAKNTVYLQMNSLKPEDTAVYYCAVRYSVLSNYRYYYWGQGTQVTVSS | low polyreactivity |
| QVQLVESGGGLVQAGGSLRLSCAASGRTFTLYAMGWSRPAPGKERELVAAIRWSGSSTYYADSVKGRFTISRDNSKNTVYLQMNSLKPEDTAVYYCAARAGRYDRYGYWGQGTQVTVSS | high polyreactivity |
| QVQLVESGGGLVQAGGSLRLSCAASGITSDFNAMGWYRQAPGKERELVAITWNGGSTYYADSVKGRFTISRDNAKNTVYLQMNSLKPEDSAVYYCAARYRRYNRIYDYWGQGTQVTVSS | high polyreactivity |
| QVQLVETGGGLVQAGGSLRLSCAASGFTFIDYTMGWYRQAPGKERELVARITDTGSTNYEDSVKGRFTISRDT | low polyreactivity |
| QVQLVESGGGLVQAGGSLRLSCAASGRTFKTYAMGWYRQAPGKERELVAAISASGGRTYYADSVKGRFTISRDNAKNTVYLQMNSLKPEDTAVYYCAALGYILNGGDYWGQGTQVTVSS | high polyreactivity |
| QVQLVESGGGLVQAGGSLRLSCAASGSTFYWYAKGWYRQAPGKERELVAAITSTGGSTYADSVKGRFTISRDNAKNTVYLQMNSLKPEDTAVYYCNVDTSSPSRRDYDYWGQGTQVTVSS | low polyreactivity |
| QDQLVESGGGLVQAGGSLRLSCAASGRIFPVYAMGWYRQAPGKERELVATITSRTGRTYYADSVKGRFTISRDNAKITVYLQMNSLKPEDTAVYYCAARGYYSAPGYGYWGQGTQVTVSS | high polyreactivity |
